Results: patent US20090317401A1

What was measured:
Test in all cases: cell-based or functional assay
[1] = target: CD16 receptor on PB-NK cells (human) (UniProt P08637)
[2] = target: human CD160 receptor (human) (UniProt O95971)
[3] = target: HLA-C expressed on K562class I+ cells (human) (UniProt P10321)
Chain of UniProt P10321 (P10321 25-366): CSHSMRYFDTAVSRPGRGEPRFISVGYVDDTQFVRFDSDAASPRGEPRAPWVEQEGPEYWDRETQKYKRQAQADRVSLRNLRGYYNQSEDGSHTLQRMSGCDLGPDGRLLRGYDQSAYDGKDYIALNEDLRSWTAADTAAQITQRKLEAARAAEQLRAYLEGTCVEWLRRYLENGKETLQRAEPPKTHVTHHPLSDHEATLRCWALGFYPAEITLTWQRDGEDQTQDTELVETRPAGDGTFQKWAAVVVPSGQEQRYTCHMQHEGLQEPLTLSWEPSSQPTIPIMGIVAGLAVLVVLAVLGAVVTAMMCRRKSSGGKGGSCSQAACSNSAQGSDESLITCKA

Chain of UniProt O95971 (O95971 25-159): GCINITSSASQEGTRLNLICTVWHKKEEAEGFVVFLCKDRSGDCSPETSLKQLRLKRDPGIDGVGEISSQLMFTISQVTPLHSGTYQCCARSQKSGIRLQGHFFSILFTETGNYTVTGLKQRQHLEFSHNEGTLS
Chain of UniProt P08637 (P08637 17-254): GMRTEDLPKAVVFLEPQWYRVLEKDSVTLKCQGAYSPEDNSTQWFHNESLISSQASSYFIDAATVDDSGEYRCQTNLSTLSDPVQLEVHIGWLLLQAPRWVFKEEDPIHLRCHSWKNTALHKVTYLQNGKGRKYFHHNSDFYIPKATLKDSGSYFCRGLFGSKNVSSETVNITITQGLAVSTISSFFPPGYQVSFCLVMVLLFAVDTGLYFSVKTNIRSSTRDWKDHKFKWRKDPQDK

Substance: 3G8 anti-CD16 mAb (IgG1; Beckman-Coulter) (antibody)
- IFN-γ production by PB-NK after mAb cross-linking of CD16, against CD160 engagement [1]: 30 fold less

Substance: HLA-C expressed on K562class I+ cells (from UniProt P10321 25-366) (ligand)
- IFN-γ production by PB-NK co-cultured 16 h with K562Class-I+ (Cytometric Bead Array) [2]: 29400 pg/mL
- IFN-γ production by PB-NK co-cultured with K562Class-I+ in the presence of IgG1 isotype control [2]: 23100 pg/mL
- IFN-γ production by PB-NK co-cultured with K562Class-I+ in the presence of IgG2a isotype control [2]: 16100 pg/mL
- IL-6 production by PB-NK co-cultured 16 h with K562Class-I+ (Cytometric Bead Array) [2]: 620 pg/mL
- IL-6 production by PB-NK co-cultured with K562Class-I+ in the presence of IgG1 isotype control [2]: 414 pg/mL
- IL-6 production by PB-NK co-cultured with K562Class-I+ in the presence of IgG2a isotype control [2]: 478 pg/mL
- TNF-α production by PB-NK co-cultured 16 h with K562Class-I+ (Cytometric Bead Array) [2]: 334 pg/mL
- TNF-α production by PB-NK co-cultured with K562Class-I+ in the presence of IgG1 isotype control [2]: 200 pg/mL
- TNF-α production by PB-NK co-cultured with K562Class-I+ in the presence of IgG2a isotype control [2]: 215 pg/mL

Substance: HLA-Cw5 on K562-HLA-Cw5 transfectants (ligand)
- IFN-γ production by PB-NK co-cultured 16 h with K562-Cw5 (Cytometric Bead Array) [2]: 20100 pg/mL
- IL-6 production by PB-NK co-cultured 16 h with K562-Cw5 (Cytometric Bead Array) [2]: 689 pg/mL
- TNF-α production by PB-NK co-cultured 16 h with K562-Cw5 (Cytometric Bead Array) [2]: 389 pg/mL

Substance: W6/32 anti-HLA mAb (IgG2a; ATCC HB-95) (antibody)
- IFN-γ production by PB-NK co-cultured with K562Class-I+ in the presence of blocking anti-HLA-C mAb [3]: 1150 pg/mL
- IL-6 production by PB-NK co-cultured with K562Class-I+ in the presence of blocking anti-HLA-C mAb [3]: 370 pg/mL
- TNF-α production by PB-NK co-cultured with K562Class-I+ in the presence of blocking anti-HLA-C mAb [3]: 64 pg/mL
